Source: patent publication US20210139548A1 (published 2021)
Blank lines part the entries; values can stand above or below the binder they belong to. *1 amine or outer side, *2 acyl side, *3 side chain or, on linkers, in order; H or OH if unused. Side-chain parts run from the residue outwards. The star is where a group is joined. C18 diacid = O=C(O)CCCCCCCCCCCCCCCCC(=O)*; γGlu = O=C(O)[C@H](CCC(=O)[*:2])N[*:1]; Isovaleryl = CC(C)CC(=O)*; AEEA = NCCOCCOCC(=O)O

Target: T1, human neuropeptide Y2 receptor (human, UniProt P49146 1-381)
T1 construct: whole, on cells; also called hNPY2 receptor; hNPY2-R
T1 sequence (looked up): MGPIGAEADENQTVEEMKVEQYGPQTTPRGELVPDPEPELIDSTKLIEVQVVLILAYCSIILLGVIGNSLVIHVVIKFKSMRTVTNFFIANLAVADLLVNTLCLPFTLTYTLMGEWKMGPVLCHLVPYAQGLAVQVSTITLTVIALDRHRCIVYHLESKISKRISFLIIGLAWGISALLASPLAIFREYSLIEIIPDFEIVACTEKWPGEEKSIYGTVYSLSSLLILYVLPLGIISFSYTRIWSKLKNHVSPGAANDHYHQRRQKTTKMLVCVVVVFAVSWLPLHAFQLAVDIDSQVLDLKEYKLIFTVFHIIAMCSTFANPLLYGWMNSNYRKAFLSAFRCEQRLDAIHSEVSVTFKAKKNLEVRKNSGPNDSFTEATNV
Assay: radioligand competition (125I-PYY(1-36)), hNPY2R membranes
In short: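 Commercial human Y2 receptor membranes (0.5 μg protein/well) were incubated with peptide for 2 h at room temperature in 50 mM HEPES, 5 mM MgCl₂, 1 mM CaCl₂, pH 7.4, with 0.2% ovalbumin. Bound radioligand was separated on PEI-soaked GF/C filters and counted by scintillation, and IC₅₀ came from nonlinear sigmoidal regression.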

B2: Compound 209 (peptide)
peptide: Isovaleryl-APEK([AEEA-AEEA-γGlu-C18 diacid])PEEDSEPEELQRYYVSLRHYYNWLTRQRY-NH2
SMILES: CC(C)CC(=O)N[C@@H](C)C(=O)N1CCC[C@H]1C(=O)N[C@@H](CCC(=O)O)C(=O)N[C@@H](CCCCNC(=O)COCCOCCNC(=O)COCCOCCNC(=O)CC[C@H](NC(=O)CCCCCCCCCCCCCCCCC(=O)O)C(=O)O)C(=O)N1CCC[C@H]1C(=O)N[C@@H](CCC(=O)O)C(=O)N[C@@H](CCC(=O)O)C(=O)N[C@@H](CC(=O)O)C(=O)N[C@@H](CO)C(=O)N[C@@H](CCC(=O)O)C(=O)N1CCC[C@H]1C(=O)N[C@@H](CCC(=O)O)C(=O)N[C@@H](CCC(=O)O)C(=O)N[C@@H](CC(C)C)C(=O)N[C@@H](CCC(N)=O)C(=O)N[C@@H](CCCNC(=N)N)C(=O)N[C@@H](Cc1ccc(O)cc1)C(=O)N[C@@H](Cc1ccc(O)cc1)C(=O)N[C@H](C(=O)N[C@@H](CO)C(=O)N[C@@H](CC(C)C)C(=O)N[C@@H](CCCNC(=N)N)C(=O)N[C@@H](Cc1c[nH]cn1)C(=O)N[C@@H](Cc1ccc(O)cc1)C(=O)N[C@@H](Cc1ccc(O)cc1)C(=O)N[C@@H](CC(N)=O)C(=O)N[C@@H](Cc1c[nH]c2ccccc12)C(=O)N[C@@H](CC(C)C)C(=O)N[C@H](C(=O)N[C@@H](CCCNC(=N)N)C(=O)N[C@@H](CCC(N)=O)C(=O)N[C@@H](CCCNC(=N)N)C(=O)N[C@@H](Cc1ccc(O)cc1)C(N)=O)[C@@H](C)O)C(C)C
- Ki: 8.07 nM

B3: Compound 212 (peptide)
peptide: Isovaleryl-APEK([AEEA-AEEA-γGlu-C18 diacid])PEEDTAPEELQRYYVSLRHYYNWLTRQRY-NH2
SMILES: CC(C)CC(=O)N[C@@H](C)C(=O)N1CCC[C@H]1C(=O)N[C@@H](CCC(=O)O)C(=O)N[C@@H](CCCCNC(=O)COCCOCCNC(=O)COCCOCCNC(=O)CC[C@H](NC(=O)CCCCCCCCCCCCCCCCC(=O)O)C(=O)O)C(=O)N1CCC[C@H]1C(=O)N[C@@H](CCC(=O)O)C(=O)N[C@@H](CCC(=O)O)C(=O)N[C@@H](CC(=O)O)C(=O)N[C@H](C(=O)N[C@@H](C)C(=O)N1CCC[C@H]1C(=O)N[C@@H](CCC(=O)O)C(=O)N[C@@H](CCC(=O)O)C(=O)N[C@@H](CC(C)C)C(=O)N[C@@H](CCC(N)=O)C(=O)N[C@@H](CCCNC(=N)N)C(=O)N[C@@H](Cc1ccc(O)cc1)C(=O)N[C@@H](Cc1ccc(O)cc1)C(=O)N[C@H](C(=O)N[C@@H](CO)C(=O)N[C@@H](CC(C)C)C(=O)N[C@@H](CCCNC(=N)N)C(=O)N[C@@H](Cc1c[nH]cn1)C(=O)N[C@@H](Cc1ccc(O)cc1)C(=O)N[C@@H](Cc1ccc(O)cc1)C(=O)N[C@@H](CC(N)=O)C(=O)N[C@@H](Cc1c[nH]c2ccccc12)C(=O)N[C@@H](CC(C)C)C(=O)N[C@H](C(=O)N[C@@H](CCCNC(=N)N)C(=O)N[C@@H](CCC(N)=O)C(=O)N[C@@H](CCCNC(=N)N)C(=O)N[C@@H](Cc1ccc(O)cc1)C(N)=O)[C@@H](C)O)C(C)C)[C@@H](C)O
- Ki: 20.3 nM

B4: Compound 210 (peptide)
peptide: Isovaleryl-APEK([AEEA-AEEA-γGlu-C18 diacid])IEEEASPEELQRYYVSLRHYYNWLTRQRY-NH2
SMILES: CC[C@H](C)[C@H](NC(=O)[C@H](CCCCNC(=O)COCCOCCNC(=O)COCCOCCNC(=O)CC[C@H](NC(=O)CCCCCCCCCCCCCCCCC(=O)O)C(=O)O)NC(=O)[C@H](CCC(=O)O)NC(=O)[C@@H]1CCCN1C(=O)[C@H](C)NC(=O)CC(C)C)C(=O)N[C@@H](CCC(=O)O)C(=O)N[C@@H](CCC(=O)O)C(=O)N[C@@H](CCC(=O)O)C(=O)N[C@@H](C)C(=O)N[C@@H](CO)C(=O)N1CCC[C@H]1C(=O)N[C@@H](CCC(=O)O)C(=O)N[C@@H](CCC(=O)O)C(=O)N[C@@H](CC(C)C)C(=O)N[C@@H](CCC(N)=O)C(=O)N[C@@H](CCCNC(=N)N)C(=O)N[C@@H](Cc1ccc(O)cc1)C(=O)N[C@@H](Cc1ccc(O)cc1)C(=O)N[C@H](C(=O)N[C@@H](CO)C(=O)N[C@@H](CC(C)C)C(=O)N[C@@H](CCCNC(=N)N)C(=O)N[C@@H](Cc1c[nH]cn1)C(=O)N[C@@H](Cc1ccc(O)cc1)C(=O)N[C@@H](Cc1ccc(O)cc1)C(=O)N[C@@H](CC(N)=O)C(=O)N[C@@H](Cc1c[nH]c2ccccc12)C(=O)N[C@@H](CC(C)C)C(=O)N[C@H](C(=O)N[C@@H](CCCNC(=N)N)C(=O)N[C@@H](CCC(N)=O)C(=O)N[C@@H](CCCNC(=N)N)C(=O)N[C@@H](Cc1ccc(O)cc1)C(N)=O)[C@@H](C)O)C(C)C
- Ki: 10.5 nM

B6: Compound 213 (peptide)
peptide: Isovaleryl-APEK([AEEA-AEEA-γGlu-C18 diacid])PEEETSPEELQRYYVSLRHYYNWLTRQRY-NH2
SMILES: CC(C)CC(=O)N[C@@H](C)C(=O)N1CCC[C@H]1C(=O)N[C@@H](CCC(=O)O)C(=O)N[C@@H](CCCCNC(=O)COCCOCCNC(=O)COCCOCCNC(=O)CC[C@H](NC(=O)CCCCCCCCCCCCCCCCC(=O)O)C(=O)O)C(=O)N1CCC[C@H]1C(=O)N[C@@H](CCC(=O)O)C(=O)N[C@@H](CCC(=O)O)C(=O)N[C@@H](CCC(=O)O)C(=O)N[C@H](C(=O)N[C@@H](CO)C(=O)N1CCC[C@H]1C(=O)N[C@@H](CCC(=O)O)C(=O)N[C@@H](CCC(=O)O)C(=O)N[C@@H](CC(C)C)C(=O)N[C@@H](CCC(N)=O)C(=O)N[C@@H](CCCNC(=N)N)C(=O)N[C@@H](Cc1ccc(O)cc1)C(=O)N[C@@H](Cc1ccc(O)cc1)C(=O)N[C@H](C(=O)N[C@@H](CO)C(=O)N[C@@H](CC(C)C)C(=O)N[C@@H](CCCNC(=N)N)C(=O)N[C@@H](Cc1c[nH]cn1)C(=O)N[C@@H](Cc1ccc(O)cc1)C(=O)N[C@@H](Cc1ccc(O)cc1)C(=O)N[C@@H](CC(N)=O)C(=O)N[C@@H](Cc1c[nH]c2ccccc12)C(=O)N[C@@H](CC(C)C)C(=O)N[C@H](C(=O)N[C@@H](CCCNC(=N)N)C(=O)N[C@@H](CCC(N)=O)C(=O)N[C@@H](CCCNC(=N)N)C(=O)N[C@@H](Cc1ccc(O)cc1)C(N)=O)[C@@H](C)O)C(C)C)[C@@H](C)O
- Ki: 6.54 nM

These reach a lower Ki. Values come first.

- Ki: 3.8 nM
B1: Compound 208 (peptide)
peptide: Isovaleryl-APEK([AEEA-AEEA-γGlu-C18 diacid])PEEDASEEETQRYYVSLRHYYNWLTRQRY-NH2
SMILES: CC(C)CC(=O)N[C@@H](C)C(=O)N1CCC[C@H]1C(=O)N[C@@H](CCC(=O)O)C(=O)N[C@@H](CCCCNC(=O)COCCOCCNC(=O)COCCOCCNC(=O)CC[C@H](NC(=O)CCCCCCCCCCCCCCCCC(=O)O)C(=O)O)C(=O)N1CCC[C@H]1C(=O)N[C@@H](CCC(=O)O)C(=O)N[C@@H](CCC(=O)O)C(=O)N[C@@H](CC(=O)O)C(=O)N[C@@H](C)C(=O)N[C@@H](CO)C(=O)N[C@@H](CCC(=O)O)C(=O)N[C@@H](CCC(=O)O)C(=O)N[C@@H](CCC(=O)O)C(=O)N[C@H](C(=O)N[C@@H](CCC(N)=O)C(=O)N[C@@H](CCCNC(=N)N)C(=O)N[C@@H](Cc1ccc(O)cc1)C(=O)N[C@@H](Cc1ccc(O)cc1)C(=O)N[C@H](C(=O)N[C@@H](CO)C(=O)N[C@@H](CC(C)C)C(=O)N[C@@H](CCCNC(=N)N)C(=O)N[C@@H](Cc1c[nH]cn1)C(=O)N[C@@H](Cc1ccc(O)cc1)C(=O)N[C@@H](Cc1ccc(O)cc1)C(=O)N[C@@H](CC(N)=O)C(=O)N[C@@H](Cc1c[nH]c2ccccc12)C(=O)N[C@@H](CC(C)C)C(=O)N[C@H](C(=O)N[C@@H](CCCNC(=N)N)C(=O)N[C@@H](CCC(N)=O)C(=O)N[C@@H](CCCNC(=N)N)C(=O)N[C@@H](Cc1ccc(O)cc1)C(N)=O)[C@@H](C)O)C(C)C)[C@@H](C)O

- Ki: 0.48 nM
B5: Compound 215 (peptide)
peptide: Isovaleryl-APEK([AEEA-AEEA-γGlu-C18 diacid])PEEDASPAELQRYYVELRHYYNWLTRQRY-NH2
SMILES: CC(C)CC(=O)N[C@@H](C)C(=O)N1CCC[C@H]1C(=O)N[C@@H](CCC(=O)O)C(=O)N[C@@H](CCCCNC(=O)COCCOCCNC(=O)COCCOCCNC(=O)CC[C@H](NC(=O)CCCCCCCCCCCCCCCCC(=O)O)C(=O)O)C(=O)N1CCC[C@H]1C(=O)N[C@@H](CCC(=O)O)C(=O)N[C@@H](CCC(=O)O)C(=O)N[C@@H](CC(=O)O)C(=O)N[C@@H](C)C(=O)N[C@@H](CO)C(=O)N1CCC[C@H]1C(=O)N[C@@H](C)C(=O)N[C@@H](CCC(=O)O)C(=O)N[C@@H](CC(C)C)C(=O)N[C@@H](CCC(N)=O)C(=O)N[C@@H](CCCNC(=N)N)C(=O)N[C@@H](Cc1ccc(O)cc1)C(=O)N[C@@H](Cc1ccc(O)cc1)C(=O)N[C@H](C(=O)N[C@@H](CCC(=O)O)C(=O)N[C@@H](CC(C)C)C(=O)N[C@@H](CCCNC(=N)N)C(=O)N[C@@H](Cc1c[nH]cn1)C(=O)N[C@@H](Cc1ccc(O)cc1)C(=O)N[C@@H](Cc1ccc(O)cc1)C(=O)N[C@@H](CC(N)=O)C(=O)N[C@@H](Cc1c[nH]c2ccccc12)C(=O)N[C@@H](CC(C)C)C(=O)N[C@H](C(=O)N[C@@H](CCCNC(=N)N)C(=O)N[C@@H](CCC(N)=O)C(=O)N[C@@H](CCCNC(=N)N)C(=O)N[C@@H](Cc1ccc(O)cc1)C(N)=O)[C@@H](C)O)C(C)C
